{"source": "patent US4944948A", "about": "“EGF/Liposome gel composition and method” (Liposome Technology, Inc., priority 1989, dated 1990)", "key": {"[1]": {"conditions": "for % Lost (of total dose administered): from first order rate constants", "method": "The amount of radioactivity remaining in the injected eye was measured for up to 96 hours after injection (until at least 90% of the initial radioactivity had disappeared). An external NaI crystal detector/ratemeter (The Nucleus Model L) was placed directly over the eye and radioactivity measured for 2 minutes and recorded on a chart recorder. […] The mean chart deflection during each recording was taken as the measurement at that time point. The first reading was taken immediately after injection (\"zero time\") and subsequent measurements were converted to a percentage of this initial amount.\nIndividual radioactivity versus time data were recorded for each animal, and the mean values for each animal group (N=4-6) were calculated.\nEach plot was used to calculate first order rate constants for EGF disappearance from the eye for each formulation by a non linear least squares fitting method (RSTRIP, MicroMath, Salt Lake City, Utah).\nAt =A0 * e ^-kt or 1n(At)=1n (A0)-kt\nwhere k=0.693 / t1/2, the amount of EGF lost from the eye during any day can be calculated."}, "[2]": {"conditions": "37° C., 25% human plasma/saline, 0.08 μm filter", "experimental": "Liposome formulations were evaluated in vitro by release rates of 125 I-rh-EGF into the receiver compartments of percutaneous absorption cells that were continuously perfused with 25% pooled human plasma/saline.\nA conventional two-chamber absorption cell, using a bath temperature of 37° C., was employed (Bronaugh). A 25 mm, 0.08 μm diameter Nuclepore (Pleasanton, Calif.) polycarbonate filter was used to separate the donor from the flow-through acceptor compartment. […] The ^125 I-rh-EGF preparation was mixed with an equal quantity of 25% pooled human plasma/isotonic saline and 200 μl aliquots were immediately applied to the donor compartments. Parafilm was used to occlude the donor compartment and prevent evaporative loss. The perfusate was collected by fraction collector into scintillation vials and mounted in a Packard TriCarg 20000. rh-EGF flux was calculated from the specific activity (DPM per μg peptide). Clearance rate half-lives were determined for individual percutaneous absorption cells as described below.\nIn this single phase system, it is possible to determine the concentration of peptide remaining in the donor compartment by subtracting cumulative peptide in the measured in the receiver compartment from total peptide applied to the donor compartment. […]"}, "[3]": {"conditions": "rabbit, subconjunctival injection"}}, "note": "Like-named read-outs stand apart in the source and are kept apart here."}
{"smiles": "CC[C@H](C)[C@@H]1NC(=O)[C@H](Cc2ccc(O)cc2)NC(=O)CNC(=O)[C@H](C(C)C)NC(=O)[C@H](C(C)C)NC(=O)[C@@H](NC(=O)[C@H](CC(N)=O)NC(=O)[C@@H]2CSSC[C@@H]3NC(=O)[C@H](Cc4ccc(O)cc4)NC(=O)CNC(=O)[C@H](CC(=O)O)NC(=O)[C@H](Cc4c[nH]cn4)NC(=O)[C@H](CO)NC(=O)[C@H](CC(C)C)NC(=O)[C@@H]4CCCN4C(=O)[C@@H](NC(=O)[C@H](CCC(=O)O)NC(=O)[C@H](CO)NC(=O)[C@H](CC(=O)O)NC(=O)[C@H](CO)NC(=O)[C@@H](N)CC(N)=O)CSSC[C@H](NC(=O)[C@H](C(C)C)NC(=O)CNC(=O)[C@H](CC(=O)O)NC(=O)[C@H](Cc4c[nH]cn4)NC(=O)[C@H](CC(C)C)NC3=O)C(=O)N[C@@H](CCSC)C(=O)N[C@@H](Cc3ccc(O)cc3)C(=O)N[C@@H]([C@@H](C)CC)C(=O)N[C@@H](CCC(=O)O)C(=O)N[C@@H](C)C(=O)N[C@@H](CC(C)C)C(=O)N[C@@H](CC(=O)O)C(=O)N[C@@H](CCCCN)C(=O)N[C@@H](Cc3ccc(O)cc3)C(=O)N[C@@H](C)C(=O)N2)CSSC[C@@H](C(=O)N[C@@H](CCC(N)=O)C(=O)N[C@@H](Cc2ccc(O)cc2)C(=O)N[C@@H](CCCNC(=N)N)C(=O)N[C@@H](CC(=O)O)C(=O)N[C@@H](CC(C)C)C(=O)N[C@@H](CCCCN)C(=O)N[C@@H](Cc2c[nH]c3ccccc23)C(=O)N[C@@H](Cc2c[nH]c3ccccc23)C(=O)N[C@@H](CCC(=O)O)C(=O)N[C@@H](CC(C)C)C(=O)N[C@@H](CCCNC(=N)N)C(=O)O)NC(=O)[C@H](CCCNC(=N)N)NC(=O)[C@H](CCC(=O)O)NC(=O)CNC1=O", "note": "[Free EGF, Epidermal Growth Factor]", "values": [{"measurement": "% Lost (of total dose administered)", "setting": "[1]; Day 1, includes initial burst", "result": 100, "unit": "%"}, {"measurement": "% Lost (of total dose administered)", "setting": "[1]; Day 2", "result": 0, "unit": "%"}, {"measurement": "% Lost (of total dose administered)", "setting": "[1]; Day 3", "result": 0, "unit": "%"}, {"measurement": "% Lost (of total dose administered)", "setting": "[1]; Day 4", "result": 0, "unit": "%"}, {"measurement": "% Lost (of total dose administered)", "setting": "[1]; Day 5", "result": 0, "unit": "%"}, {"measurement": "% Lost (of total dose administered)", "setting": "[1]; Day 6", "result": 0, "unit": "%"}, {"measurement": "% Lost (of total dose administered)", "setting": "[1]; Day 7", "result": 0, "unit": "%"}, {"measurement": "Dose remaining in the eye", "setting": "[1]; after 3 hours", "result": "Less than 15%"}, {"measurement": "EGF available at the conjunctival site", "setting": "[1]; one day after administration", "result": "substantially no EGF was available"}, {"measurement": "Half life of EGF retention in the eye", "setting": "[1]; [3]", "result": 1, "unit": "h"}, {"measurement": "Half-life of EGF disappearance from the eye", "setting": "[1]; [3]", "result": 1.0, "unit": "h"}, {"measurement": "Half life of EGF retention in the eye", "setting": "[1]; rabbit, subconjunctival injection, listed as unencapsulated EGF", "result": 1.0, "unit": "h"}, {"measurement": "Rate constant of EGF disappearance from the eye", "setting": "[1]; rabbit, subconjunctival, fit of loglinear portion after initial burst", "result": 0.69, "unit": "h⁻¹"}, {"measurement": "Half-life of EGF release in vitro (slow phase for liposomes)", "setting": "[2]", "result": "about 1.8 hours"}]}
